For 141 sequences, switch fluorescence ratio results are on record in the supplement of paper PMC10126150.

± gives the standard deviation of the averaged measurements.
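Also: ATP exposure 15 min at 22 °C before imaging.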

The subject of the data set is ATP. Description: switch fluorescence ratio, 500 uM ATP over buffer (Cy3 cluster intensity, sum of 5 cycles each) (fold (ratio)); higher = stronger signal-on switching upon ATP binding; sequences stand for … in TCGTCGGCAGCGTCAGATGTGTATAAGAGACAGTTTTTTTTTTTTTTTTTTTTTTTTT…TC. The settings on record: aptamer strand: ATP DNA aptamer (quencher-CACCTGGGGGAGTATTGCGGAGGAAGG + anchor), 100 nM annealed; ATP concentration: 500 uM. A digest of the protocol: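 Per cluster, summed Cy3 intensity from the target cycles was divided by that from the buffer cycles to give the fluorescence ratio, then averaged per switch-domain sequence. Clusters outside 100-1000 RFU were excluded. The Cy3-labelled switching-strand clusters, on a modified Illumina MiSeq flow-cell, were annealed to 100 nM quencher-labelled ATP aptamer and imaged in selection buffer, then after 15 min with 500 uM ATP at 22 °C, for five cycles with NaOH stripping and re-annealing between them.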
On to TTGAGAGGGT, for which the switch fluorescence ratio amounted to 0.9859 ± 0.0089.
To TATAGGGGAT belongs 1.032 ± 0.0068; to ATCTGTGAAC, 1.05 ± 0.073.
With TTGTGTTGTA the figure was 1 ± 0.042; with TATTGGGGGC, 1 ± 0.018; with TTCCAGGTTC, 1.04 ± 0.012.
With TCCGAAATCA the figure was 1.6 ± 0.48; with GGCTGGGGCA, 0.979 ± 0.021; with AGTTTATACT, 1.03 ± 0.0032.
ATGAATTGTT: the switch fluorescence ratio came out at 0.974 ± 0.02.
With GGTGTTGATC the figure was 1.03 ± 0.025.
To TTTGGATGAA belongs 1.05 ± 0.013.
To GGGATTTGTA belongs 1.02 ± 0.017.
Regarding AATTTTTCTC, the switch fluorescence ratio is 1.05 ± 0.1.
In the case of CATGGGGGCT, the switch fluorescence ratio was 0.964 ± 0.024.
GATTCACTAA: the switch fluorescence ratio is 0.989 ± 0.054.
To CGATTATTAT belongs 0.975 ± 0.031; to ATTTAGGTAG, 1.02 ± 0.024.
With CTTATGGACT the figure was 0.991 ± 0.033; with TTTTTCACGT, 1.02 ± 0.029; with CCGAGTTAGG, 1.068 ± 0.0066.
To TATTGCATTA belongs 1.03 ± 0.013; to ACCGGCGAGC, 1.01 ± 0.016; to TGTGGGGCC, 1.04 ± 0.03.
Regarding ATCGGGGTTG, the switch fluorescence ratio turned out to be 0.958 ± 0.017.
In the case of TTTTCAAGTG, the switch fluorescence ratio amounted to 1 ± 0.029.
ATTTAGGATT: the switch fluorescence ratio came to 1.01 ± 0.018.
To TAGGGGGAT belongs 1.01 ± 0.011; to GCAGCCAAGC, 1.14 ± 0.028.
Regarding TTGAGCTTAT, the switch fluorescence ratio turned out to be 0.993 ± 0.018.
With GAAGGTGAAT, the switch fluorescence ratio came to 1.04 ± 0.022.
To CAACTATTGC belongs 1.04 ± 0.036.
With ACAGTAACTT the figure was 1.092 ± 0.0098; with GGATGGGCTA, 0.999 ± 0.025; with GACGAGCCTG, 0.996 ± 0.015.
To AGGTCCCTGT belongs 1.01 ± 0.042; to GGTTTTCGGC, 0.9771 ± 0.0087.
Take GGTTTATGAA: the switch fluorescence ratio turned out to be 0.999 ± 0.018.
Regarding GATCGGGGGC, the switch fluorescence ratio came out at 1.06 ± 0.14.
To AAGATATGGC belongs 1.02 ± 0.047; to TCGGGGCGGC, 1.02 ± 0.046; to AGAAAGGAAG, 1.01 ± 0.024.
With ATTTGTTTTA the figure was 1.08 ± 0.17.
As to AGTTAGGACA, the switch fluorescence ratio is 1 ± 0.031.
With TAGCTGACTG, the switch fluorescence ratio came to 1.02 ± 0.04.
Turning to GGATTGTGAA, the switch fluorescence ratio stood at 1 ± 0.025.
CAGTTACGGT: the switch fluorescence ratio was 1.003 ± 0.0068.
To GAGGTTGATG belongs 1.01 ± 0.02; to AGCGAAGCTG, 1.01 ± 0.011.
To CAGAGAAGGC belongs 0.991 ± 0.018; to TGTGTTCCAA, 1.002 ± 0.0047; to TTTTGCGGTT, 0.998 ± 0.038.
With GGGGTAAATC the figure was 1.01 ± 0.024; with GGAATCGGAA, 1.02 ± 0.034; with TTCGGAACGG, 0.991 ± 0.027.
With AAGCGAGGGG, the switch fluorescence ratio worked out at 1.03 ± 0.047.
In the case of TCACATTTTT, the switch fluorescence ratio turned out to be 0.99 ± 0.076.
To AGGAGGGTTA belongs 1 ± 0.028; to TTTTGGAGGG, 1.01 ± 0.034; to CTCTGGATTT, 0.97272 ± 0.00011.
Turning to CGTATTTTAG, the switch fluorescence ratio turned out to be 1 ± 0.029.
With GGTCAAGTGG the figure was 1 ± 0.02.
To CGGATATGGA belongs 0.988 ± 0.058.
TGGTGACTTA: the switch fluorescence ratio was found to be 0.974 ± 0.039.
To TAGATGAGCA belongs 0.965 ± 0.07.
Consider TCGGGATGTT, for which the switch fluorescence ratio was found to be 0.989 ± 0.027.
For the sequence GTTGAAAAAA, the switch fluorescence ratio is 1.31 ± 0.73.
To GGTGGGGCTT belongs 0.998 ± 0.025; to GTTTTGGAGC, 1.03 ± 0.067.
With CAGGTGGTGT the figure was 1.11 ± 0.066; with TGAACAAATG, 1.04 ± 0.11.
On to CCGTTACATG, for which the switch fluorescence ratio came out at 1.05 ± 0.017.
On to CGATGATATT, for which the switch fluorescence ratio amounted to 1.02 ± 0.053.
With CAAATTTTCT the figure was 0.978 ± 0.025.
On to GAAAGGAAAA, for which the switch fluorescence ratio turned out to be 0.975 ± 0.016.
With GATTATGGCA the figure was 0.9752 ± 0.0066.
With GGGGGGGG the figure was 0.994 ± 0.043; with ATTTTCATAC, 1.08 ± 0.026.
With GGTTATATGT the figure was 1.02 ± 0.021; with CGGTGCCAAG, 0.988 ± 0.042.
For the sequence TAGCGCTGCC, the switch fluorescence ratio turned out to be 0.984 ± 0.012.
TATTCCGGCC: the switch fluorescence ratio was 1.05 ± 0.058.
Regarding GTTGTTTTAG, the switch fluorescence ratio worked out at 0.992 ± 0.019.
Consider GCAGGGAGTT, for which the switch fluorescence ratio came out at 0.966 ± 0.029.
Take CGGAGGAATT: the switch fluorescence ratio is 1.2 ± 0.11.
To TTGGGGCACA belongs 1.01 ± 0.031; to ATTAGTTTGA, 0.985 ± 0.014.
With TATTTTTTAG, the switch fluorescence ratio amounted to 0.96 ± 0.013.
To TCGTAGAAGG belongs 0.991 ± 0.048.
To GTAACGGCCG belongs 1.16 ± 0.18; to AGTCGAGCTA, 0.986 ± 0.021.
To AGTATGTTTT belongs 0.995 ± 0.0076.
Regarding TTTGTGGGG, the switch fluorescence ratio turned out to be 0.978 ± 0.023.
With GGGGGGCGGG the figure was 1.03 ± 0.051; with TCAGGGGTAT, 1.03 ± 0.028.
On to TCCGGGCCTT, for which the switch fluorescence ratio is 1.02 ± 0.09.
With GTTAGAGCCG the figure was 1.09 ± 0.062; with TTTTTTGTTA, 1 ± 0.024.
With CTTAACGGGA the figure was 0.99 ± 0.026.
On to GATTGTAATC, for which the switch fluorescence ratio is 0.99 ± 0.0063.
To TTATAAATTT belongs 1.29 ± 0.45; to CCTTCTGCCG, 1.203 ± 0.0042.
To TGGTGGTGGT belongs 1.01 ± 0.033.
As to GGGTTTAGCG, the switch fluorescence ratio was 1.014 ± 0.0022.
Take CGATATGGGG: the switch fluorescence ratio was determined as 1.01 ± 0.057.
To TACGTTATGC belongs 1.27 ± 0.013; to ATTGATTGAA, 1.01 ± 0.012; to CTGGTCTTGC, 1.04 ± 0.035.
As to GTGGTTCTAT, the switch fluorescence ratio stood at 0.996 ± 0.026.
With CCTGTGGACG the figure was 0.914 ± 0.048; with GACATTTGTT, 0.986 ± 0.014; with TGGGGGGTAT, 1 ± 0.03.
As for GTTAAGGTTT, the switch fluorescence ratio stood at 1.03 ± 0.063.
To TATTTTGAAA belongs 0.992 ± 0.027; to GGGGACAGAT, 0.991 ± 0.017.
For the sequence AGTAGCAAAT, the switch fluorescence ratio stood at 1.2 ± 0.13.
With ATAGGTCCCG the figure was 1 ± 0.017.
With AGATCGTTGT the figure was 0.978 ± 0.028.
To AAAAAGAAAG belongs 1.02 ± 0.022.
GAAGGATAGC: the switch fluorescence ratio worked out at 0.998 ± 0.018.
With TCGGTAGCGA the figure was 1.14 ± 0.17; with AAGGGGGCGG, 1 ± 0.015.
Turning to ACATTGATGG, the switch fluorescence ratio was 1.028 ± 0.00017.
To GAAGTATGAT belongs 0.962 ± 0.042; to GGAAGGGGGG, 1.01 ± 0.024.
With AATAGATTCG the figure was 0.982 ± 0.017; with GGGCGGCTGC, 0.955 ± 0.03.
As to CGTGCTCAGA, the switch fluorescence ratio is 0.996 ± 0.025.
For the sequence TGACACGGTT, the switch fluorescence ratio was found to be 0.9814 ± 0.0058.
To GCACGCGGCT belongs 1.02 ± 0.019.
To ATATTCTTGG belongs 0.9852 ± 0.0026.
Take ATGGGGAGAA: the switch fluorescence ratio was 1.01 ± 0.029.
For the sequence GCCGTCTGTG, the switch fluorescence ratio came out at 0.9728 ± 0.0039.
With CCATTGGGTT the figure was 1.02 ± 0.031; with ATGGAAGTTT, 1.01 ± 0.022; with AATTAGCTGC, 1.04 ± 0.043.
In the case of AAATATATGT, the switch fluorescence ratio was determined as 0.997 ± 0.046.
To AATATGGTTT belongs 0.966 ± 0.02; to TAGGGTAGCG, 0.99 ± 0.012.
With CAGAATTTAG the figure was 0.996 ± 0.024.
With TGGCTTTGTT the figure was 0.9888 ± 0.0041.
